Experimental data published in patent US20030119727A1 (Genentech, published 2003).
Positions of bridges follow the written chain, without caps; N, C: chain ends. No end group written: not given here.

T1: recombinant human Factor VIIa (human, UniProt P08709 61-212; P08709 213-466)
T1 chain 1: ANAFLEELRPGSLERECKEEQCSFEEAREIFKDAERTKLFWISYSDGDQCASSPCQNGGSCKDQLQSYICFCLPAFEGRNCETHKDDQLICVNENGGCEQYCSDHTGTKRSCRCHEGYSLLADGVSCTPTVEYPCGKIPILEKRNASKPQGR
T1 chain 2: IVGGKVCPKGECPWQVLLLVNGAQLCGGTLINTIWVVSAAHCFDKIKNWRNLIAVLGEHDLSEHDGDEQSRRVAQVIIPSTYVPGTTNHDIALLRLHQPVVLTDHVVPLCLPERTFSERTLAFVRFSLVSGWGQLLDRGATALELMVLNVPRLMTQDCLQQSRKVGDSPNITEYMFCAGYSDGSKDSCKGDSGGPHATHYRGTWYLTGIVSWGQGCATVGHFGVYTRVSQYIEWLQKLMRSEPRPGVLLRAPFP

T2: recombinant human Factor VIIa (human, UniProt P08709 61-212; P08709 213-466)
T2 construct: Immobilized directly on microtiter plates at 2 ug/ml; also called FVIIa
T2 sequence (looked up) 1: T1 chain 1
T2 sequence (looked up) 2: T1 chain 2

T3: recombinant human Factor VIIa (human), P08709
T3 chain 1: T1 chain 1
T3 chain 2: T1 chain 2

B1: peptide TF151 (peptide)
peptide: ALCDNPRIDRWYCQFVEG
modifications: disulfide 3-13 (inferred)
notes: Chemically synthesized, with the disulfide oxidized

Target: T1, recombinant human Factor VIIa
Test: competition ELISA
Conditions: not given
Binder Ac-ALCDDPRVDRWYCQFVEG-NH2 (disulfide 3-13 (inferred)) [peptide TF76 (Ac-ALCDDPRVDRWYCQFVEG-NH2)] has an IC50 of 21 nM.

The binders below were run against T2, recombinant human Factor VIIa (assay: FVIIa Binding ELISA, competition with 20 nM TF147b on immobilized FVIIa). Conditions: not given.
Description: FVIIa Binding ELISA—The ability of peptides to compete with biotinylated versions of TF76 (e.g. TF147b, or other peptides described herein that could be biotinylated as described) for binding to FVIIa was monitored using a FVIIa Binding ELISA or a TF-FVIIa Binding ELISA. Microtiter plates were coated overnight with 2 μg/ml recombinant human FVIIa or 2 μg/ml TF₁₋₂₄₃ (Paborsky, L. R. et al. (1991) J. Biol. Chem. 266: 21911) in 50 mM ammonium bicarbonate pH 9 at 4° C.; all other steps were performed at room temperature. Plates were then blocked with 1% BSA in Assay Buffer (50 mM HEPES, pH 7.2, 5 mM CaCl₂, 150 mM NaCl). […] The microtiter plate was washed 3 times with Assay Buffer plus 0.05% Tween 20 and the biotinylated-peptide bound was detected with a Streptavidin/HRP conjugate (Streptavidin-POD, Roche Molecular Biochemicals). The amount of HRP bound was measured using ABTS/H₂O₂ substrate (Kirkegaard and Perry Laboratories) and monitoring the absorbance at 405 nm. The absorbance at 405 nm was plotted versus the concentration of peptide originally added to the well. Sigmoidal curves were fit to a four parameter equation by nonlinear regression analysis (Marquardt, J. Soc. Indust. Appl. Math. 11:431-441 (1963); the concentration of each peptide required to give a half-maximal signal in the assay was calculated from the curves and is referred to as the IC₅₀ value. […]
In the case of B1, the IC50 is reported as 2 nM. With SQAQRRAVGALCDNPRIDRWYCQFVEGGGGSSG (Fc fusion, cysteine pairing not given here; also: fused to human IgG1 Fc, dimer, not shown: Fc portion of the human IgG1) [TF151-Fc fusion] the IC50 was 3 nM.

Target: T3, recombinant human Factor VIIa (human), …
Test: competition ELISA
Conditions: modification not given
For AVCDDPRVDRWYCQFVEG [TF317], the IC50 was 988 nM. ALCDDARVDRWYCQFVEG [TF178] showed an IC50 of 20 nM. Work on AACDDPRVDRWYCQFVEG [TF155] yielded an IC50 of 9780 nM. For ALCDDPRVDRWYCQFV [TF89], the IC50 was 298 nM. With ALCDDPRVDRWYCQLVEG [TF189] the IC50 was 438 nM. Work on ALCDDPRVDQWYCQFVEG [TF98] yielded an IC50 of 2560 nM. With ALCDDPRVDRWYCQF [TF90] the IC50 was 168 nM. With VGALCDDPRVDRWYCQFVEG [TF74] the IC50 was 5 nM. ALCDDPRVDRHYCQFVEG [TF152] was tested, and the IC50 was greater than 100000 nM. For AMCDDPRVDRWYCQFVEG [TF319], the IC50 was 24000 nM. Binder ATCDDPRVDRWYCQFVEG [TF318] has an IC50 of 75000 nM. With LCDDPRIDRWYCQF [TF63] the IC50 was 100000 nM. ALCADPRVDRWYCQFVEG [TF107] was tested, and the IC50 was 10 nM. Binder ALCDDPRIDRWYCQFVEG [TF121] has an IC50 of 3 nM. With ALCDDPRVDRWYCYFVEG [TF132] the IC50 was 85 nM. ALCDDPRVQRWYCQFVEG [TF161] was tested, and the IC50 was 8620 nM. ALCDDPEVDRWYCQFVEG [TF96] gave an IC50 of 257 nM. ALCDDPRVDRFYCQFVEG [TF131] showed an IC50 of 4960 nM. Work on ALCDNPRVDRWYCQFVEG [TF106] yielded an IC50 of 2 nM. ALCDDPRVARWYCQFVEG [TF110] was tested, and the IC50 was 330 nM. Binder EGTLCDDPRIDRWYCMFSGV [TF58] has an IC50 of 2300 nM. With ALCDDPRVDRWYCQAVEG [TF115] the IC50 was 20000 nM. Work on ALADDPRVDRWYAQFVEG [TF119] yielded an IC50 greater than 100000 nM. ALCDDPRVERWYCQFVEG [TF111] showed an IC50 of 147 nM. For LCDDPRVDRWYCQFVEG [TF77], the IC50 was 248 nM. Binder ALCRDPRVDRWYCQFVEG [TF127] has an IC50 of 28 nM. For ALCDDPRLDRWYCQFVEG [TF128], the IC50 was 141 nM. In the case of LCDDPRIDRWYCMF [TF61], the IC50 is reported as 250000 nM. In the case of ALCDAPRVDRWYCQFVEG [TF108], the IC50 is reported as 104 nM. ALCDRPRVDRWYCQFVEG [TF95] was tested, and the IC50 was 123 nM. Binder ALCDEPRVDRWYCQFVEG [TF120] has an IC50 of 109 nM. With ALCDDPRVDPWYCQFVEG [TF113] the IC50 was 10500 nM. In the case of ALCDDPRVDRWYCQYVEG [TF146], the IC50 is reported as 698 nM. AKCDDPRVDRWYCQFVEG [TF320] gave an IC50 of 42000 nM. Work on ALCDDPRVDAWYCQFVEG [TF112] yielded an IC50 of 396 nM. With ALCDDPRVSRWYCQFVEG [TF162] the IC50 was 359 nM. CDDPRVDRWYCQFVEG [TF156] gave an IC50 of 90300 nM. Work on VGALCDDPRVDRWYCQFVE [TF75] yielded an IC50 of 6 nM. ALCDDPAVDRWYCQFVEG [TF109] was tested, and the IC50 was 110 nM. In the case of ALCDDPRVDRAYCQFVEG [TF114], the IC50 is reported as greater than 50000 nM. ALCDDPRVDKWYCQFVEG [TF130] was tested, and the IC50 was 93 nM. ALCDDPRVNRWYCQFVEG [TF97] was tested, and the IC50 was 1200 nM. ALCDDPRVDRWFCQFVEG [TF144] was tested, and the IC50 was 485 nM. For ALCDDPRVDRWYC [TF180], the IC50 was 100000 nM. ALCDDPRVDRWACQFVEG [TF145] gave an IC50 greater than 50000 nM. With ALCDDPRVDRWYCQQVEG [TF191] the IC50 was 20300 nM. With ALCDDPRVDRWYCAFVEG [TF179] the IC50 was 32 nM. With ALCDDPRADRWYCQFVEG [TF129] the IC50 was 716 nM.
